In one test the target is T1, MCL-1ΔNΔC (human, UniProt Q07820 172-329).
T1 construct: As printed for the fluorescence polarization assay
In words: competitive fluorescence polarization against FITC-BID BH3. How it is done: (§1) The warhead-bearing D-NA-NOXA-15 R31E SAHB was only able to compete with FITC-BID BH3 for binding to BFL-1ΔC C4S/C19S (FIG. 20), and this activity was dependent on the presence of Cys55 in the BH3-binding pocket, as this effect was not observed with BFL-1ΔC C4S/C19S/C55S (FIG. 21).
(§2) Fluorescence polarization (FP) assays were performed as previously described (Pitter et al., 2008 (supra)). Briefly, direct binding curves were first generated by FITC-BID BH3 (25 nM) with serial dilutions of anti-apoptotic protein, and FP was measured at 5 min on a SpectraMax M5 microplate reader (Molecular Devices). For competition assays, a serial dilution of acetylated or warhead-bearing NOXA SAHB was added to the indicated recombinant protein at ~EC75 concentration, as determined by the direct binding assay. FITC-BID BH3 (25 nM) was then added and fluorescence polarization was measured at equilibrium. IC50 values were calculated by nonlinear regression analysis of competitive binding curves using PRISM software (GraphPad).
(Polarisation of emitted light reports the rotation of a fluorescent probe.)

Another test addresses T2, His-BFL-1ΔC C4S/C19S (human, UniProt Q16548 1-151).
T2 construct: also called BFL-1 C4S/C19S; not shown: N-terminal hexahistidine tag (pET17b)
T2 chain: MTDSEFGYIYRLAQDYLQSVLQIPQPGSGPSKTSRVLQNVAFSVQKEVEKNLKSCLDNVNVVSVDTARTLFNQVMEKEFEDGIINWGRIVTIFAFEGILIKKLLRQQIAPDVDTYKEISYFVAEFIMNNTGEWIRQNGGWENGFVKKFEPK
The description is as above. As to the method: as §1, §2

The next test addresses T3, full length HA-BFL1 (human, UniProt Q16548 1-175).
T3 construct: also called HA-tagged full-length BFL-1; expressed full-length BFL-1; not shown: HA tag
T3 sequence: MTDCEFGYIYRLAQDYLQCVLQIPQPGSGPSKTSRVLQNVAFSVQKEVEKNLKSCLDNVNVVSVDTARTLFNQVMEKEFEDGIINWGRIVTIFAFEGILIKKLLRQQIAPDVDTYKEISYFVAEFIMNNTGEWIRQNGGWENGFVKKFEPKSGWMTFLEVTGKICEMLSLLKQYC
In words: 293T cells treated with 20 µM NOXA SAHB for 12 hours; anti-HA western of lysates. The source says: Of note, native BFL-1 runs at a higher molecular weight than recombinant or expressed BFL-1.

For test [1], the target named is T4, His-BFL-1ΔC (human, UniProt Q16548 1-151).
T4 construct: also called WT His-BFL-1ΔC; wild-type BFL-1 construct; not shown: N-terminal hexahistidine tag (pET17b)
T4 sequence: T2 chain with S4C, S19C
The test is described as follows: in vitro covalent conjugation; reducing and denaturing gel electrophoresis.

The target in test [2] is T5, recombinant full-length BFL-1 (human, UniProt Q16548 1-175).
T5 construct: not shown: N-terminal hexahistidine tag
T5 sequence: T3 sequence
The description is as above.

In test [3] the target is T4, His-BFL-1ΔC. The test is described as follows: streptavidin pull-down of biotinylated SAHB from an equimolar mixture of recombinant GST-MCL-1ΔNΔC, BCL-XLΔC and His-BFL-1ΔC; silver stain. How it is done: The biotinylated D-NA-NOXA-15 F32A SAHB or corresponding acetylated construct was incubated in an equimolar mixture with recombinant BFL-1, BCL-XL, and MCL-1, and then subjected to streptavidin pull-down. […] Additionally, the preferential interactions of these peptides were assessed with endogenous protein in lysates from the A375P melanoma cell line.
WT His-BFL-1ΔC, BCL-XLΔC (tagless), and GST-MCL-1ΔNΔC (1 μM each) were combined and incubated with 3 mM DTT in PBS for thirty minutes at room temperature. Mixtures were treated with vehicle or the indicated C-terminally biotinylated NOXA SAHB (1 μM) for four hours and were then added to 30 μL PBS-washed high-capacity streptavidin (SA) agarose beads (Thermo Fisher Pierce) and incubated with rotation at room temperature for two hours. The beads were then washed three times with NP-40 lysis buffer (1% NP-40, 50 mM Tris pH 8, 100 mM NaCl, 2.5 mM MgCl2) and three times with PBS. To elute bound protein, beads were boiled for ten minutes with 10% SDS containing 10 mg/mL biotin. After elution, samples were boiled with 3×LDS and 2M DTT for twenty minutes. Gel electrophoresis using a 12% Bis-Tris gel was conducted on inputs (2%) and eluates ([…]) and gels were developed using the Pierce silver staining kit (Thermo Fisher).

Where a chain is given by its changes, count along the chain named. Names and notes keep the numbering of the source. Bridges are numbered along the chain shown (N, C = ends). Where no end group is shown, it is not given here. [ ]: non-standard residue; d: D form. The star is where a group is joined. D‑NA = N-terminal D-nipecotic acid moiety terminating in acrylamide (cysteine-reactive warhead); Biotin = O=C1N[C@H]2[C@H](CS[C@H]2CCCCC(=O)*)N1; R8 = C=CCCCCCC[C@@](C)(N)C(=O)O; S5 = C=CCCC[C@](C)(N)C(=O)O

T1 sequence (Q07820 172-329, stated change not applied): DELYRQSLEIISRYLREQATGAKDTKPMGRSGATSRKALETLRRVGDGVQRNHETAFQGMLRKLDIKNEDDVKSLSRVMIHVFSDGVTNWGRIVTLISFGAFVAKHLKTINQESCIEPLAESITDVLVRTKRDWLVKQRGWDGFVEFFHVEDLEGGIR

B1: D-NA-NOXA-15 R31E (peptide)
peptide: {D‑NA}-AT[R8]LREFGD[S5]LNFRQ
modifications: staple 3-10
notes: also called D-NA-NOXA SAHB-15 R31E; cysteine-reactive NOXA-15 R31E SAHB
With B1, the binding result (in the test with MCL-1ΔNΔC; with His-BFL-1ΔC C4S/C19S; with full length HA-BFL1; with His-BFL-1ΔC [1]; in test [2]) was “binds” each time.

B2: biotinylated Ac-NOXA-15 R31E SAHB (peptide)
peptide: Ac-AT[R8]LREFGD[S5]LNFRQK(Biotin)
modifications: staple 3-10
notes: also called acetylated counterpart of D-NA-NOXA-15 R31E
With B2, the binding result in the test with His-BFL-1ΔC [3] is “no binding (tested: 1 µM)”.

B3: D-NA-NOXA-15 F32A (peptide)
peptide: {D‑NA}-AT[R8]LRRAGD[S5]LNFRQ
modifications: staple 3-10
notes: also called D-NA-NOXA SAHB-15 F32A; cysteine-reactive NOXA-15 F32A SAHB
As for B3, the binding result (in the test with full length HA-BFL1; with His-BFL-1ΔC [1]; in test [2]) was “binds” throughout.

B4: Ac-NOXA-15 R31E (peptide)
peptide: Ac-AT[R8]LREFGD[S5]LNFRQ
modifications: staple 3-10
notes: also called acetylated NOXA-15 R31E SAHB; acetylated counterpart of D-NA-NOXA-15 R31E
As to B4, the binding result with MCL-1ΔNΔC was “binds”.
